Measurements taken from paper PMC8667318.

Molecular target: Recombinant human MCHR1 Protein (human) (UniProt Q99705)
Experiment: SPR; Biacore T200, CM5 chip, 25°C; MCHR1 immobilised by amine coupling (~5500 RU); PDGF-BB as analyte 100 nM to 3.125 nM; PBS-P (20 mM phosphate pH 7.4, 137 mM NaCl, 2.7 mM KCl, 0.05% P20); 1:1 kinetics model fitting

Sequence of UniProt Q99705 (Q99705 whole entry): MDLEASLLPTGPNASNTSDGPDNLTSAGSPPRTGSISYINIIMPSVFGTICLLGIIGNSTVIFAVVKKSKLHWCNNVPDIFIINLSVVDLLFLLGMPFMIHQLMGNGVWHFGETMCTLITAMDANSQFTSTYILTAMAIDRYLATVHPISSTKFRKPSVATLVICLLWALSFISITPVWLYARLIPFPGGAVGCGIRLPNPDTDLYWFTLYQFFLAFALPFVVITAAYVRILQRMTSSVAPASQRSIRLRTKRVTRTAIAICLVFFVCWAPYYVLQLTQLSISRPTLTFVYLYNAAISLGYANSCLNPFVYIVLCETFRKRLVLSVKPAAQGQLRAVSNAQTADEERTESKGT

Kd: 46.6 nM
Substance: Recombinant human PDGF-BB (from UniProt P01127 82-190) (ligand)
